# Assay results taken from publication PMC8828546, “OsWRKY53 Promotes Abscisic Acid Accumulation to Accelerate Leaf Senescence and Inhibit Seed Germination by Downregulating Abscisic Acid Catabolic Genes in Rice”.
# B1: OsABA8ox1 promoter W-box probe (dsDNA)
# DNA 1: ACAGGTTGACCTTTGCAT
# DNA 2: ATGCAAAGGTCAACCTGT
# Target: OsWRKY53 (Oryza sativa (rice), UniProt A7BEY7 1-487)
# Assay: EMSA; unlabeled probe competitor at 10-, 50-, 100-fold also run (outcome only in gel); EMSA: room temperature, 20 min; binding buffer, salt and pH not stated; 6% native acrylamide gel, 0.5x TBE, 4 C, 110 V, 2 h
# Conditions: protein: recombinant; tags: His; TF (pCold-TF vector); label: 5'-FAM on one strand; annealed with complementary oligo
# Chain of OsWRKY53 (A7BEY7 entry or part of it): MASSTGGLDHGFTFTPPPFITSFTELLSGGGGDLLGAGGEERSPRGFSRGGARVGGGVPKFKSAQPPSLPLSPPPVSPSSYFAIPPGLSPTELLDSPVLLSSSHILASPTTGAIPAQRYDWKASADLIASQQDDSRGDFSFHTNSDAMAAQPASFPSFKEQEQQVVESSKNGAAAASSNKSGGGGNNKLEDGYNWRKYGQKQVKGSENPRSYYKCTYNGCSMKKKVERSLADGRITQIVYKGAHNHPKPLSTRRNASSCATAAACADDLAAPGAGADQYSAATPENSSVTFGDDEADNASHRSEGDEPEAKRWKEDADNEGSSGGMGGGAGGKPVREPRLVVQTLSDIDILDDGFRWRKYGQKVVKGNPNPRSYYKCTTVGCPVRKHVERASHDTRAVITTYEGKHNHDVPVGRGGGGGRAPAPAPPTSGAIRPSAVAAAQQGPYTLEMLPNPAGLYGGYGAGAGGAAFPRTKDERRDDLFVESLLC
binder,measurement,value
B1,binding result,binds
